Target: T1, Aβ1–42 peptide (UniProt P05067 672-713)
T1 construct: amyloid beta 1-42, cut product of the amyloid beta precursor protein (APP); For neurons and isolated mitochondria the peptide was prepared as oligomeric Aβ (HFIP film, DMSO, HAM'S F-12, 4 °C for 24 h); for the pull-down the methods say only 'Aβ peptide'; also called amyloid beta; oligomeric Aβ1–42; source: synthetic peptide, bought: GenicBio
Assay: pull-down; GST-tagged OSCP on glutathione agarose as bait, incubated overnight at 4 °C with Aβ peptide; immunoblotting or coomassie staining
Conditions: both partners purified

B1: GST-tagged OSCP (oligomycin sensitivity conferring protein), wild type (natural protein, human, UniProt P48047 24-213, looked up)
chain: FAKLVRPPVQVYGIEGRYATALYSAASKQNKLEQVEKELLRVAQILKEPKVAASVLNPYVKRSIKVKSLNDITAKERFSPLTTNLINLLAENGRLSNTQGVVSAFSTMMSVHRGEVPCTVTSASPLEEATLSELKTVLKSFLSQGQVLKLEAKTDPSILGGMIVRIGEKYVDMSVKTKIQKLGRAMREIV
notes: oligomycin sensitivity conferring protein (OSCP) subunit of mitochondrial F1FO-ATP synthase, human cDNA (Gene Name ATP5O, NCBI Gene ID 539) in pGEX-4t-1; it may tell the limits of the construct; also called GST-OSCP; wild-type OSCP
**Q.** Does B1 bind?
**A.** Result: binds
